Experimental data reported in patent US12258605B2, “Alkane oxidation by modified hydroxylases” (The California Institute of Technology, priority 2005, dated 2025).

How the values were obtained:
[1] = Octane hydroxylation (rate, ttn, regio- and enantioselectivity); format: biochemical; details: for Octane ttn / Octane Rate: 1% ethanol; for Octane Rate: initial rate of octanol formation over 1 min; for Octane % 2-octanol: regioselectivity
Procedure: Cell lysates for high throughput screening were prepared as described previously (Peters et al., J. Am. Chem. Soc. 125:13442 (2003); incorporated by reference herein). High-throughput dimethyl ether (DME) screens were performed in 96 well plates as described previously. Improved mutants were selected based on an increased signal compared to 9-10A (for the saturation mutagenesis libraries) and 1-12G (for the recombination library). Reactions on octane and propane were analyzed by gas chromatography as described.
Rates of ethanol formation were measured over 30 min using gas chromatography (GC) coupled to an electron capture detector (ECD) and are reported as nmol ethanol/min/nmol enzyme. Errors are at most 10%. Total turnover number (ttn) was measured using GC after completion of the reaction and is reported as nmol product/nmol protein. Errors are at most 10%. Initial rates of propanol and octanol formation were measured over 1 min by GC and are reported as nmol product/min/nmol protein. Errors are at most 15%. The “ee” of 2-octanol (main product) was measured by GC; the favored enantiomer is listed in parenthesis. Wild-type P450 BM-3 primarily produces 3- and 4-octanol. The yields were not sufficient for the determination of ee for wt BM-3. Mutant 9-10A contains amino acid substitutions R47C, V78A K94I, P142S, T175I, A184V, F205C, S226R, H236Q, E252G, R255S, A290V, and L353V.
In Table 5 the product distribution is determined as ratio of a specific alcohol product to the total amount of all alcohol products (given in %). The product distribution for ketones was similar to alcohol product distribution. The numbers reported here are the (%) total of all ketones relative to total products (alcohols+ketones). The favored enantiomer is listed in parentheses.
For the data shown in Table 6 the initial NADPH consumption rates were measured over 15 seconds at 340 nm as nmol NADPH/min/nmol protein. Octane reactions contained 100 nM P450, 166 uM NADPH, and 4 mM octane in 1% ethanol and potassium phosphate buffer. […] Errors are at most 10%. Initial rates were measured by GC over 1 minute as nmol total products/min/nmol protein. Octane reactions contained 100 nM P450, 500 uM NADPH, and 4 mM octane in 1% ethanol and potassium phosphate buffer. Propane reactions contained 1 uM P450, 500 uM NADPH, and propane-saturated potassium phosphate buffer. Coupling was determined by ratio of product formation rate to NADPH consumption rate. Total turnover numbers were determined as nmol product/nmol enzyme. Octane reactions contained 10-25 nM P450, 500 uM NADPH, and 4 mM octane in 1% ethanol and potassium phosphate buffer. Propane reactions contained 10-25 nM protein, potassium phosphate buffer saturated with propane, and an NADPH regeneration system containing 100 uM NADP+, 2 U/mL isocitrate dehydrogenase, and 10 mM isocitrate.
Twenty-one single active site mutants with increased activity towards either of these substrates were isolated. Mutations that improved the activity were found at amino acid positions L75 (I, W), A78 (T, F, S), A82 (T, S, F, I, C, G, L), F87 (I, V, L), T88 (C), T260 (N, L, S) and A328 (L, F, M). The single active site mutants of 9-10A were characterized by their altered regioselectivity towards octane. Each of these mutations produces a characteristic octanol product distribution as a result of their presence altering the active site geometry above the heme cofactor. Transformations were carried out using cell lysates. The mutations were generated in variant 9-10A (with amino acid mutations R47C, V78A, K94I, P142S, T175I, A184V, F205C, S226R, H236Q, E252G, R255S, A290V, L353V). “Others” indicates over oxidation products (ketones and aldehydes) with a similar product distribution as the alcohols. “Rate” was measured as nmol octanol/nmol P450/minute. “TTN” was measured as nmol octanol/nmol P450 produced in 4 hour reaction.
Mutations are relative to variant 9-10A (described above). Wild-type has a valine at position 78. […]

[2] = Absorption spectra, spin shift upon incubation with substrate; format: binding; details: 3 uM purified P450; incubation with ethane or octane
Procedure: The absorption spectra for 53-5H and 35-E11 were taken using a 3 uM solution of purified P450 in a quartz cuvette. Upon incubation with ethane, no shift in equilibrium from low- (Amax at 418 nm) to high-spin (Amax at 390 nm) configuration of the ferric P450 was observed.

Activity on palmitate = format: biochemical
Procedure: To evaluate the fate of the enzyme's original function, P450PMO activity was tested on the long-chain fatty acids laurate and palmitate.

B1: 35-E11: P450 BM-3 variant, SEQ ID NO:7: 53-5H substitutions plus E464G and I710T (protein)
chain: TIKEMPQPKTFGELKNLPLLNTDKPVQALMKIADELGEIFKFEAPGCVTRYLSSQRLIKEACDESRFDKNLSQALKFFRDFSGDGLFTSWTHEINWKKAHNILLPSFSQQAMKGYHAMMVDIAVQLVQKWERLNADEHIEVSEDMTRLTLDTIGLCGFNYRFNSFYRDQPHPFIISMVRALDEVMNKLQRANPDDPAYDENKRQCQEDIKVMNDLVDKIIADRKARGEQSDDLLTQMLNGKDPETGEPLDDGNISYQIITFLIAGHETTSGLLSFALYFLVKNPHVLQKVVEEAARVLVDPVPSYKQVKQLKYVGMVLNEALRLWPTFPAFSLYAKEDTVLGGEYPLEKGDEVMVLIPQLHRDKTIWGDDVEEFRPERFENPSAIPQHAFKPFGNGQRACIGQQFALHEATLVLGMMLKHFDFEDHTNYELDIKETLTLKPEGFVVKAKSKKIPLGGIPSPSTGQSAKKVRKKAENAHNTPLLVLYGSNMGTAEGTARDLADIAMSKGFAPQVATLDSHAGNLPREGAVLIVTASYNGHPPDNAKQFVDWLDQASADEVKGVRYSVFGCGDKNWATTYQKVPAFIDETLAAKGAENIADRGEADASDDFEGTYEEWREHMWSDVAAYFNLDIENSEDNKSTLSLQFVDSAADMPLAKMHGAFSTNVVASKELQQPGSARSTRHLEIELPKEASYQEGDHLGVIPRNYEGTVNRVTARFGLDASQQIRLEAEEEKLAHLPLAKTVSVEELLQYVELQDPVTRTQLRAMAAKTVCPPHKVELEALLEKQAYKEQVLAKRLTMLELLEKYPACEMKFSEFIALLPSIRPRYYSISSSPRVDEKQASITVSVVSGEAWSGYGEYKGIASNYLAELQEGDTITCFISTPQSEFTLPKDPETPLIMVGPGTGVAPFRGFVQARKQLKEQGQSLGEAHLYFGCRSPHEDYLYQEELENAQSEGIITLHTAFSRMPNQPKTYVQHVMEQDGKKLIELLDQGAHFYICGDGSQMAPAVEATLMKSYADVHQVSEADARLWLQQLEEKGRYAKDVWAG
modifications: mutant P450 35-E11 protein sequence
- Octane ttn [1]: 8000 nmol product/nmol protein
- Octane % ee ([1]; ee of 2-octanol (main product), favored enantiomer (S)): 65%
- Octane Rate [1]: 420 nmol product/min/nmol protein
- Octane % 2-octanol [1]: 89%
- shift from low- to high-spin ferric P450 [2]: behaved identically

B2: Wild-type BM-3: wild-type cytochrome P450 BM-3 from Bacillus megaterium, SEQ ID NO:1 (protein, listed as Bacillus megaterium)
chain: TIKEMPQPKTFGELKNLPLLNTDKPVQALMKIADELGEIFKFEAPGRVTRYLSSQRLIKEACDESRFDKNLSQALKFVRDFAGDGLFTSWTHEKNWKKAHNILLPSFSQQAMKGYHAMMVDIAVQLVQKWERLNADEHIEVPEDMTRLTLDTIGLCGFNYRFNSFYRDQPHPFITSMVRALDEAMNKLQRANPDDPAYDENKRQFQEDIKVMNDLVDKIIADRKASGEQSDDLLTHMLNGKDPETGEPLDDENIRYQIITFLIAGHETTSGLLSFALYFLVKNPHVLQKAAEEAARVLVDPVPSYKQVKQLKYVGMVLNEALRLWPTAPAFSLYAKEDTVLGGEYPLEKGDELMVLIPQLHRDKTIWGDDVEEFRPERFENPSAIPQHAFKPFGNGQRACIGQQFALHEATLVLGMMLKHFDFEDHTNYELDIKETLTLKPEGFVVKAKSKKIPLGGIPSPSTEQSAKKVRKKAENAHNTPLLVLYGSNMGTAEGTARDLADIAMSKGFAPQVATLDSHAGNLPREGAVLIVTASYNGHPPDNAKQFVDWLDQASADEVKGVRYSVFGCGDKNWATTYQKVPAFIDETLAAKGAENIADRGEADASDDFEGTYEEWREHMWSDVAAYFNLDIENSEDNKSTLSLQFVDSAADMPLAKMHGAFSTNVVASKELQQPGSARSTRHLEIELPKEASYQEGDHLGVIPRNYEGIVNRVTARFGLDASQQIRLEAEEEKLAHLPLAKTVSVEELLQYVELQDPVTRTQLRAMAAKTVCPPHKVELEALLEKQAYKEQVLAKRLTMLELLEKYPACEMKFSEFIALLPSIRPRYYSISSSPRVDEKQASITVSVVSGEAWSGYGEYKGIASNYLAELQEGDTITCFISTPQSEFTLPKDPETPLIMVGPGTGVAPFRGFVQARKQLKEQGQSLGEAHLYFGCRSPHEDYLYQEELENAQSEGIITLHTAFSRMPNQPKTYVQHVMEQDGKKLIELLDQGAHFYICGDGSQMAPAVEATLMKSYADVHQVSEADARLWLQQLEEKGRYAKDVWAG
- rate of octane hydroxylation [1]: 30 min⁻¹
- Octane ttn [1]: 150 nmol product/nmol protein
- Octane Rate [1]: 30 nmol product/min/nmol protein
- Octane % 2-octanol [1]: 17%

B3: P450PMO: P450 BM-3 variant, SEQ ID NO:125; 7-7 plus G443A and D698G; propane monooxygenase (protein)
chain: TIKEMPQPKTFGELKNLPLLNTDKPVQALMKIADELGEIFKFEAPGCVTRYISSQRLIKEACDESRFDKNLSQELKFFRDFGGDGLFTSWTHEINWKKAHNILLPSFSQQAMKGYHAMMVDIAVQLVQKWERLNADEHIEVSEDMTRLTLDTIGLCGFNYRFNSFYRDQPHPFIISMVRALDEVMNKPQRANPDDPAYDENKRQCQEDIKVMNDLVDKIIADRKARGEQSDDLLTQMLNGKDPETGEPLDDGNISYQIITFLIAGHETTSGLLSFALYFLVKNPHVLQKVVEEAARVLVDPVPSYKQVKQLKYVGMVLNEALRLWPTFPAFSLYAKEDTVLGGEYPLEKGDEVMVLIPQLHRDKTVWGDDVEEFRPERFENPSAIPQHAFKPFGNGQRACIGQQFALHEATLVLGMMLKHFDFEDHTNYELDIKETLTLKPEAFVVKAKSKKIPLGGIPSPSTGQSAKKVRKKAENAHNTPLLVLYGSNMGTAEGTARDLADIAMSKGFAPQVATLDSHAGNLPREGAVLIVTASYNGHPPDNAKQFVDWLDQASADEVKGVRYSVFGCGDKNWATTYQKVPAFIDETLAAKGAENIADRGEADASDDFEGTYEEWREHMWSDVAAYFNLDIENSEDNKSTLSLQFVDSAADMPLAKMHGAFSTNVVASKELQQPGSARSTRHLEIELPKEASYQEGGHLGVIPRNYEGTVNRVTARFGLDASQQIRLEAEEEKLAHLPLAKTVSVEELLQYVELQDPVTRTQLRAMAAKTVCPPHKVELEALLEKQAYKEQVLAKRLTMLELLEKYPACEMKFSEFIALLPSIRPRYYSISSSPRVDEKQASITVSVVSGEAWSGYGEYKGIASNYLAELQEGDTITCFISTPQSEFTLPKDPETPLIMVGPGTGVAPFRGFVQARKQLKEQGQSLGEAHLYFGCRSPHEDYLYQEELENAQSEGIITLHTAFSRMPNQPKTYVQHVMEQDGKKLIELLDQGAHFYICGDGSQMAPAVEATLMKSYADVHQVSEADARLWLQQLEEKGRYAKDVWAG
modifications: Mutant P450PMO protein sequence
notes: 7-7 plus G443A and D698G; propane monooxygenase
- hydroxylated fatty acids formed (Activity on palmitate): no detectable amounts of hydroxylated fatty acids
